Measured values: patent US20260055186A1 (REPERTOIRE IMMUNE MEDICINES, published 2026)

B1: 03A01-IgG-IL12 (LC) (other)
VH: DVQFQESGPGLVKPSQSLSLTCTVTGYSITSDFAWNWIRQFPGNELEWMGYISYSGDTNYNPSLRSRISITRDTSKNQFFLQLDSVTTEDTATYYCTIRGYYTDSAFVFWGQGTLVTVSA
VL: DIQMTQSSSYLSVSLGGRVTITCKASDHINNWLAWYQQKPGNAPRLLISGATSLETGVPSRFTGSGSGLDYTLSITSLQTEDVATYYCQQYWNSPFTFGSGTKLEIK
notes: 03A01 IgG with human IL-12p70 linked to the C-terminus of each light chain; human IgG1 Fc with L234A, L235A, P329G, N297A; also called 03A01 IgG IL12p70 (LC)
B2: 02A01-IgG-IL12 (LC) (other)
VH: EVQLQQSGPELVKPGASLKISCKASGYTFTDFTMHWVKQSHGKSLEWIGLVNPNNGGNIYNQNFKGKATLTVDTSSSTAYMELRSLTSEDSSVYYCGRVPLYTSHGMDYWGQGTSVTVSS
VL: DIVLTQSPAFLAVSLGQRATISCRASESVDSYDINSMHWYQQKPGQPPKLLIYRASHLQSGIPARFSGSGSRTDFTLTINFVEADDVATYYCQQSNEDPLTFGAGTKLELK
notes: 02A01 IgG with human IL-12p70 linked to the C-terminus of each light chain; human IgG1 Fc with L234A, L235A, P329G, N297A; also called 02A01 IgG IL12p70 (LC)

Key:
[1] = target: T1, human CD8 on human T cells (human, UniProt P01732 22-235); experiment: flow cytometry, CD8+ T cells in human PBMCs, 1 h, PE anti-IL12
T1 construct: whole, on cells; the antibodies were raised against human CD8 alpha; also called CD8 on human CD8+ T cells; hCD8
T1 sequence (P01732 22-235): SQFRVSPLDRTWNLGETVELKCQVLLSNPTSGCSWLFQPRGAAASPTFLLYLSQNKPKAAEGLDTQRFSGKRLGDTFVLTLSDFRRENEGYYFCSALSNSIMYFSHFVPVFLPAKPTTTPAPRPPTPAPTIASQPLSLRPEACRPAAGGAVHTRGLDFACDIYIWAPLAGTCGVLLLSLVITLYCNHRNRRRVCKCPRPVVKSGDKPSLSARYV
Description: Fusion proteins 02A01-IgG-IL12 (LC) and 03A01-IgG-IL12 (LC) were evaluated for their ability to specifically target IL12 to CD8⁺ T cells. […] The cells were incubated with media lacking a fusion protein as a negative control. Following 1 hour of incubation with the IL12 fusion constructs, the cells were washed once with complete RPMI medium and prepared for flow cytometry analysis. Cells were washed once with phosphate-buffered saline (PBS) containing 1% bovine serum albumin (PBS/BSA) and then stained with a 1:100 dilution of PE-conjugated anti-IL12 antibody (Clone No. C11.5; BioLegend Cat. No. 501807) in PBS/BSA. Following a 20 minute incubation at room temperature, the cells were washed once with PBS/BSA and then resuspended in PBS/BSA for analysis on a FACSCelesta using Diva software (BD Biosciences). Binding activity was quantified and represented as the mean fluorescent intensity values of IL-12 on either CD8⁺ T cells or NK cells. […] At a saturating dose, there was a 4- to 5-fold more IL-12 bound to CD8⁺ T cells than was bound to NK cells.

[2] = target: T1, human CD8 on human T cells; experiment: cell-based or functional assay

| Binder | EC50 (read off the curve) [1] [nM] | EC50 of pSTAT4 signaling in human CD8+ T cells [2] [pM] |
| --- | --- | --- |
| B1 | ~0.2 | 14.7 |
| B2 | ~0.01 | 2.72 |
